The data set can be described thus: soluble on expression in E. coli; label from the status in PepcDB or PDB records.
For the sequence “GNLSFLATSDGASLAYRLDGAAEKPLLALSNSIGTTLHMWDAQLPALTRHFRVLRYDARGHGASSVPPGPYTLARLGEDVLELLDALEVRRAHFLGLSLGGIVGQWLALHAPQRIERLVLANTSAWLGPAAQWDERIAAVLQAEDMSETAAGFLGNWFPPALLERAEPVVERFRAMLMATNRHGLAGSFAAVRDTDLRAQLARIERPTLVIAGAYDTVTAASHGELIAASIAGARLVTLPAVHLSNVEFPQAFEGAVLSFLGA”, the “soluble on expression in E. coli” value was “not soluble”.

In the case of “MRGSHHHHHHGMASMTGGQQMGRDLYDDDDKDRWIRTGGYQPTLWDFSTIQSFDSEYKEEKHLMRAAGMIDQVKMMLQEEVDSIRRLELIDDLRRLGISCHFEREIVEILNSKYYTNNEIDERDLYSTALRFRLLRQYDFSVSQEVFDCFKNAKGTDFKPSLVDDTRGLLQLYEASFLSAQGEETLRLARDFATKFLQKRVLVDKDINLLSSIERALELPTHWRVQMPNARSFIDAYKRRPDMNPTVLELAKLDFNMVQAQFQQELKEASRWWNSTGLVHELPFVRDRIVECYYWTTGVVERRQHGYERIMLTKINALVTTIDDVFDIYGTLEELQLFTTAIQRWDIESMKQLPPYMQICYLALFNFVNEMAYDTLRDKGFDSTPYLRKVWVGLIESYLIEAKWYYKGHKPSLEEYMKNSWISIGGIPILSHLFFRLTDSIEEEAAESMHKYHDIVRASCTILRLADDMGTSLDEVERGDVPKSVQCYMNEKNASEEEAREHVRSLIDQTWKMMNKEMMTSSFSKYFVEVSANLARMAQWIYQHESDGFGMQHSLVNKMLRDLLFHRYE”, the “soluble on expression in E. coli” value is “soluble”.

For “MNDYIVVKCGGSMLEQLNDVFFDCIKKLQQQYKVVIVHGGGPEIDAKLKDCNINVEKRDGLRVTPKEVMDVVQMVLCGSTNKKFVMNLQKHNLLAVGCSGCDGKLLQVQPVSEEIGYVGEVSYVETALLKGLINMNYIPVIAPIGIHDNEIYNINADTAAAGIAAALSAKELILITDVDGILHEGKLVKKTDESEIATLIEKGVITGGMIPKVQAALASLKMGVQKISIVNGTKDFTEDTGECIGMTVTRGVSIV”, the “soluble on expression in E. coli” value is “not soluble”.

In the case of “MGSDKIHHHHHHAQQLNVQGDLVSSYVWRGMYQTGASIQPTLGFSVGNFSLTAWGSTDFDGTSASAGAAAKEIDLTAAYTLGRSGLTVSVADLWWAGQGARKYFNFKSHETAHHFEAGVAYTVQSETFPLSVAWYTMFAGQDKNAEGGQNYSSYVEFNYPFRVRMVDLNVTCGMVPYAAPQYNCDGFAVTNVALKGTTQIRFTDKFALPVFAQAVWNPRMEDAHLVFGITLKP”, the “soluble on expression in E. coli” value was “not soluble”.

Consider “MSLQDDIKEKKKLVVAVSPDYAPFEFKALVNGKDTVVGADIDLAKAIAKELGVKLELSSMSFDNVLSSLKTGKADIAISGLSYTKERAQAYDFSEAYYKTENAILIKKSDLNKYTMISSFNNKTKVAVQKGTIEEGLAKNQLKQSNITSLTSMGEAVNELKSGQVDAIDLEKPVAEGYVSQNSDLVLAKVALKTGEGDAKAVALPKDSGQLVKTVNKVIKKLKKEDKYKQFISDAVKLTGQQVDEGHHHHHH”, for which the “soluble on expression in E. coli” value is “soluble”.

As to “MAHHHHHHMQWKKDDLFEGLRKLPRTPGELFGHRNKLNFILQKRFFIAPDMVELALNRQNGEQFNRCYAKLVMQAVAKFNNTTRSQLKVRVDPRLPKGLQLIQPDDKDTGANLKSKKSEKAASGRLNAFSNTTSGQQRKPQQRQQSRYCSPQSGGVSPRVVMPIDPAERDCLYATYLRARTPQSGTPDYSDMMLQSPSCATDGKTTMFSEDGSSALRSATRRSAGDVHFATPPVFKGFERTLELTPADSPTESLPLHF”, the “soluble on expression in E. coli” value was “not soluble”.

Regarding “NLKVEFYNSNPSDTTNSINPQFKVTNTGSSAIDLSKLTLRYYYTVDGQKDQTFWCDHAAIIGSNGSYNGITSNVKGTFVKMSSSTNNADTYLEISFTGGTLEPGAHVQIQGRFAKNDWSNYTQSNDYSFKSASQFVEWDQVTAYLNGVLVWGKEP”, the “soluble on expression in E. coli” value is on record as “soluble”.

Regarding “AHHHHHHGSKVVIVGNGPGGFELAKQLSQTYEVTVIDKEPVPYYSKPMLSHYIAGFIPRNRLFPYSLDWYRKRGIEIRLAEEAKLIDRGRKVVITEKGEVPYDTLVLATGARAREPQIKGKEYLLTLRTIFDADRIKESIENSGEAIIIGGGFIGLELAGNLAEAGYHVKLIHRGAMFLGLDEELSNMIKDMLEETGVKFFLNSELLEANEEGVLTNSGFIEGKVKICAIGIVPNVDLARRSGIHTGRGILIDDNFRTSAKDVYAIGDCAEYSGIIAGTAKAAMEQARVLADILKGEPRRYNFKFRSTVFKFGKLQIAIIGNTKGEGKWIEDNTKVFYENGKIIGAVVFNDIRKATKLEKEILDFYS”, the “soluble on expression in E. coli” value is given as “soluble”.

For the sequence “MGSDKIHHHHHHMAAILPARITKVLPDSIAAEIGFEAGDALVAINGVQPRDLIDYKFLCSDEFLELEVLDASGKTHHIEIEKDYDEDLGLEFETALFDGLIQCNNRCPFCFIDQQPPGKRSSLYLKDDDYRLSFLYGSYLTLTNLPEREWQRIEQMRLSPLYVSVHATEPEVRIRLLKNQRAAQILDQLRWFQARRLQIHAQVVVCPGINDGKHLEQTLRDLASFHDGDVPTVASVAVVPVGLTRFRPEEDELIPVTREKAQEVIAQVRSLTQEFRRQFGSNVAWLADEWFLIAGEELPSEAEYEEYPQIDNGVGSIRLFLKQFAETAAELLPTKINHPKKLTWVVGNAVEKAFQPILKSLNAVEGLEINMCALSSDYWGQTISVTGLITGHDLLLHLKEQDLGGGILLPNVMLKHGELVFLDDMSVEEVAQKLHTKIIPIAGVKELIKTCITDSVSV”, the “soluble on expression in E. coli” value is given as “not soluble”.

Consider “MPYVFLLSPQLEIASQWDGYYEKTFEVSDHVHKEIILKVSGQTVLITGSGSGLGRLMAFEFGKLGARLVLWDINEQGNKETLKELEAMGVEVWTCNIFHIYRFIR”, for which the “soluble on expression in E. coli” value is recorded as “not soluble”.

Regarding “MSLHSDILVVGAGPAGLSFAAELAGSGLKVTLIERSPLTVLQNPPYDGREIALTHFSREIMQRLGMWDKIPENEIYPLRDAKVLNGRSDYQLHFPQPTEARGEPADCLGYLISNHNIRRAAYEVVSQLDNVSILTDTAVKEVKTSDNEAQVFLENGDILTARLLLAADSRFSQTRRQLGISSDMHDYSRTMFVCRMKHTLSNQHTAYECFHYGRTIALLPLEKRLTNTVITVDTDKINSVQNLSPEELAASVKEQLKGRLGDMELVSSIHHYPLVGMIAKRFYGKRSALIGDAAVGMHPVTAHGFNLGLSSADILAKLILEAEQRGQDIGAASLLEKYSSKHMLHAHPLYHGTNMMLKLFTNETAPAKLLRGLVLRAGNNFPPLKKLITKQLTGLEHHHHHH”, the “soluble on expression in E. coli” value is recorded as “soluble”.

On to “PHFRGPVRKSTSIDTGPTESPASLKRVASPAAKPAIPGEEFIAMYTYESSEQGDLTFQQGDVIVVTKKDGDWWTGTGGDKSGVFPSNYVRLKDSEGSGTAGKTGSLGKKPEIAQVIASYAATGPEQLTLAPGQLILIRKKNPGGWWEGELQARGKKRQIGWFPANYVKLLSPGTSKITPTELPKTAVQPAVCQVIGMYDYTAQNDDELAFSKGQIINVLNKEDPDWWKGEVSGQVGLFPSNYVKLTTDMDPSQQWCSDLHLLDMLTPTERKRQGYIHELIVTEENYVNDLQLVTEIFQKPLTESELLTEKEVAMIFVNWKELIMCNIKLLKALRVRKKMSGEKMPVKMIGDILSAQLPHMQPYIRFCSCQLNGAALIQQKTDEAPDFKEFVKRLAMDPRCKGMPLSSFILKPMQRVTRYPLIIKNILENTPENHPDHSHLKHALEKAEELCSQVNEGVREKENSDRLEWIQAHVQCEGLSEQLVFNSVTNCLGPRKFLHSGKLYKAKSNKELYGFLFNDFLLLTQITKPLGSSGTDKVFSPKSNLQYKMYKTPIFLNEVLVKLPTDPSGDEPIFHISHIDRVYTLRAESINERTAWVQKIKAASELYIETEKKKREKAYLVRSQRATGIGRLMVNVVEGIELKPCRSHGKSNPYCEVTMGSQCHITKTIQDTLNPKWNSNCQFFIRDLEQEVLCITVFERDQLSADDFLGRTEIRVADIKKDQGSKGPVTKCLLLHEVPTGEIVVRLDLQLFDEP”, for which the “soluble on expression in E. coli” value was “soluble”.

Consider “VISCDDVPEDLETDHLFSSQMVAVVAPEHELAQREAITFDEFFEHELVMFQHGYFHREFLDHVSEEHGFSMKSSFETNLLPLILSIVRQEFAITALLELVTQNEKGVVGIPFHPPVTLDLALAWRKEGYLSIADRTFIDFVKRYV”, for which the “soluble on expression in E. coli” value was “not soluble”.

“MELSRGASAPDPDDVRPLKPCLLRRNHSRDQHGVAASSLEELRSKACELLAIDKSLTPITLVLAEDGTIVDDDDYFLCLPSNTKFVALACNEKWTYNDSDGGTAWVSQESFEADEPDSRAGVKWKNVARQLKEDLSSIILLSEEDLQALIDIPCAELAQELCQSCATVQGLQSTLQQVLDQREEARQSKQLLELYLQALEKEGNILSNQKESKAALSEELDAVDTGVGREMASEVLLRSQILTTLKEKPAPELSLSSQDLESVSKEDPKALAVALSWDIRKAETVQQACTTELALRLQQVQSLHSLRNLSARRSPLPGEPQRPKRAKRDSS”: the “soluble on expression in E. coli” value is “soluble”.

On to “MSLNIPDEGFFTLLTQGMRNRTVETLQRALYHTLRDAILQGTLTARCRLPGSRVMAERLHLSRNTVNAALEQLALEGYLTRSRQGTQVAPLASCRQEAGQMPPVVLPERLQRLPAAMRRDSPTLAFTPGMPAVNYFPLPLWRRLMDNVLREDGSALLGYGEAAGDPLLREAIARHLALSRGIRCDIRQIVITEGALEGVNLCASLLTNPGDSVWLEEPGYLGAWSGFQRAGLRVRGMAVDDEGMCIANGVAEPPRLIFTSPSHQYPCGSIMSAGRRLALVEYARRHGAWIVEDDYDSEFRHSGEPIPAMLGMVPDAPVVYLGTFSKTLFPALRIGFMVMPPALADAAQDAIGALLRGGHRAEQRALASFIEKGHYARHLAAMRRLYRKRQQQLREALAQEITVPCDVLGGGGGMHLTVAMEGVNDRTLAQQARQFQLAPAALSHFYLDPQRARSGLVLGYGNTSASRYLPALRTLNRLIAQHRRAEGHHHHHH”, for which the “soluble on expression in E. coli” value was “not soluble”.

Turning to “MTEDRNFDDIAHKFAKNIYGSDKGEIRQVIVWEDLEQLLSQLDTQKVPLHVLDAGGGLAQVSQKIARLGHRVTLCDLSSEMLQLAEQDIANNGLLEQYRFVHSPVQTIQAHLDAPVDLVLFHAVMEWLAEPKPALQNLLAQVRPGGMVSVMFYNYHGLVYKNAVCGNIPHVLEDMPHRKRFKLQPQKGLLPEEVYQWIEESSFEICGKSGIRCFSDYIGNMKNMGEYQYEDLVALERKFCRQEPYLSLGRYIHVWAKKKQ”, the “soluble on expression in E. coli” value was “not soluble”.

Consider “MAHHHHHHMKIHIFLIATIYVLFSEKLIKWTTASTTQGGDTDTHPGTPPGEGSDVSQGAGQDASQGAGQDANPDPTLPKPPSPPADDTKDTGSQGDADSSSSKIEIPPLVKPENHKTIVSAMLKNYKGVKVTGTCGADFGLFLVPHIYVHVKSEDTEIELSSELAPPEMQTKFDKTQLKKFCVKDDTKKFDFIAYIYKDILVFKWKVYEEGLSKEQDVDEMKYLLPNLKQPITSIQVHSWTGTKESYILESKDYVLGEGMPEKCDAIATDCFLSGFTDIGKCFQCKLLMQEKNINDSCFKYVSSNQKELIKKQLKITAQDDEESSEYHLSESIKNLLKNIYKKNNDDNKKKELLHFENVNSALKSELLNYCNLLKEVNMNGVLKDHQLGNVQDVFNNLTKLLEEHKEENDNVLYHKMKNEALCLKNVNDWMKNKTGLLLPQLSYDLTYKNNNFTEFTQNKSYTSQNIVDKLYCNHEYCNRLKDHNNCISKINVEDQKNCALSWAFASKYHLETIKCMKGYEPLNASVLYVTNCLKNKNKDVCTEGSNPLVFLETIEEKGFLPTESNYPYDQSKVGDICPQLQNDWDNVFENTKVLDYNNGPFSVGTKGYIAYESEAFQKDMHSFVKLVKDEIMNKGSVIAYVKAENVLGYELNGKKVQNLCGDKTPDHVVNIVGYGNYINNKGEKKSYWIVRNSWGKYWGDDGYFKVDMYGPSTCEDNFIHTVVVFNVQVPINEKFDKKEHDIYNYYLKTSPEFYHNLYYKTFNS”, for which the “soluble on expression in E. coli” value is given as “not soluble”.

For the origin of these results see the DeepSol protein solubility set.
